The target in this experiment is Recombinant SARS-CoV-2 spike N-terminal domain (NTD) (SARS-CoV-2, ancestral (Wuhan-Hu-1), UniProt P0DTC2). The experiment can be described thus: BLI.

B1: PVI.V6-14 monoclonal antibody (IgG) (antibody, V domains shown)
VH: QVQLQESGPGLVKPSETLSLTCTVSGGSISSSSYYWGWIRQPPGKGLEWIGSIYYSGSTYYNPSLKSRVTISVDTSKNQFSLKLSSVTAADTAVYYCARCRPEYYFGSGSYLDFDY
VL: DIQMTQSPSSVSASVGDRVTITCRASQGISSWLAWYQQKPGKAPKLLIYAASSLQSGVPSRFSGSGSGTDFTLTISSLQPEDFATYYCQQANSFPLTFGGGTKVEIK
For the molecule B1, the binding result is on record as “binds”.

Values taken from paper doi:10.1101/2021.07.08.451649 (bioRxiv, 2021).
